According to patent US20220144922A1 (Adimab, published 2022):
Positions count from the first letter of the chain named.

B1: ADI-15630 (antibody, V domains shown)
VH: QVQLVQSGGGLVKPGGSLRLSCAASGFIFSDYYMVWIRQAPGKGLEWVSYISSSSRYINYADSVKGRFTISRDNAKNSLFLQMNTVRAEDTAVYYCAQGWYSDFWSGPIRIWGQGTLVTVSS
VL: DIQLTQSPSSLSASVGDRVTITCQASQDISNSLNWFQQKPGKAPKLLIFDAYNLETGVPSRFSGSGSGTDFTLTISSLQPEDIATYYCQQNDNLVLTFGGGTKLEIK
B2: ADI-15661 (antibody, V domains shown)
VH: EVQLVESGGGVVQPGRSLRLSCEASGFNFHNYDIQWVRQAPGKGLEWVALVLFDGSKKYYPHSVKGRFAISRDNSKKTLFLQMNSLRPEDTAVYYCARAPVTGASYYLDYWGQGTLVTVSS
VL: SYVLTQPPSVSVAPGQTARITCGANNIGNKGVHWYQQKPGQAPVLVVYDDDDQPSGIPERFSGSNSGNTATLTISRVEAGDEADYYCQVWDSTSDHLVFGGGTQLTVL
B3: ADI-15613 (antibody, V domains shown)
VH: EVQLVESGAEVKKPGSSVKVSCKVSGGTFSTYGISWIQQAPGQGLEWVGGIIPMFGTANYAQRFQGRVTLTADEGTNTAYMELNNLRSEDTAMYYCARDRGNNGRYYAMDVWGQGTTVTVSS
VL: DIVLTQTPATLSLSPGERATLSCRASQSVTTYLAWYQQKPGQAPRLLIYDTSNRATGIPARFSGSGSGTDFTLTISSLEPEDFAVYYCQQRNNWPPTFGQGTRLEIK
B4: ADI-15634 (antibody, V domains shown)
VH: QVQLVQSGAEVKKPGSSVKVSCKASGGTFSSYAISWVRQAPGQGLEWMGGIIPIFGTVNYAQKFQGRVTITADESTSTAYMELSSLRSEDTAVYYCARDRSVTPRYYGMDVWGQGTTVTVSS
VL: EIVMTQSPATLSLSPGERATLSCRASQSVSSYLAWYQQKPGQAPRLLIYDASNRATGIPARFSGSGSGTDFTLTISSLEPEDFAVYYCQHRSNWPPLTFGPGTKLEIK
B5: ADI-15664 (antibody, V domains shown)
VH: EVQLVESGAEVKKPGSSVKVSCKASGGTFSSYAISWVRQAPGQGLEWMGGTIPIFGTINYAQKFQGRLTINADASTSTAYMELSSLRSEDTAVYFCARDRTTAVRYYAMDVWGQGTTVTVSS
VL: B4 VL with M4L, A51T, G57D, S92A, P101G, L105V
B6: ADI-15636 (antibody, V domains shown)
VH: EVQLVESGAEVKKPGSSVKVSCKASADTFSSYAISWVRQAPGQGLEWMGGILPILGTANSAQKFRGRVTFTADESTTTAYMELSSLRSEDTAVYYCARLAGPRWPGYGMDVWGQGTLVTVSS
VL: DIQLTQSPSFLSASVGDRVTITCRASQGISSYLAWYQQKPGKAPKLLIYAASTLQSGVPSRFSGSGSGTEFTLTISSLQPEDFATYYCQQLNSFPLTFGGGTKVEIK
B7: ADI-15562 (antibody, V domains shown)
VH: QVQLVQSGAEVKKPGDSLKISCKNAGHTSRIYWIAWVRQMPAKGLEYMGIIFPGDSDTRYSPSFRGQVTISADRSIRTAYLQLSSLKASDTGIYYCATQGLEGAFDYWGQGTLVTVSS
VL: DIRLTQSPSSLSASVGDRVTITCQASQDISNQLNWYQQKPGTAPKLLIYDASFLQTGVPSRFSGSGSGTHFTFTITSLQPEDFATYFCQHYDSFPIFTFGPGTKLEIK

These binders were tested against RSV F protein of subtype B strain 18537, on virus (respiratory syncytial virus subtype B …, UniProt P13843 26-574) (assay: cell-based or functional assay).

Binder | Neut IC50 (ug/ml) subtype B [µg/mL]
B1 | 6.64
B2 | > 10
B3 | 3.04
B4 | > 10
B5 | > 10
B6 | 6.44

The binders below were run against RSV F protein of subtype A strain A2, on virus (respiratory syncytial virus subtype A …, UniProt P03420 26-574) (assay: cell-based or functional assay).

Binder | Neut IC50 (ug/ml) subtype A [µg/mL]
B1 | > 10
B2 | 0.021
B7 | 0.01
B3 | 0.862
B4 | > 10
B5 | > 10
B6 | > 10
